{"source": "the DeepSol protein solubility set", "data": [{"assay": "soluble on expression in E. coli; label from the status in PepcDB or PDB records", "values": [{"sequence": "MSLKYLVMNAGRLFLSLLKESGVNKIFIVSGTDYASLIEAKVEDSSLPEFEIVPHEITAISTAIGYALGNKLSAVAVHTTPGTANALGGIMSAFTSRIPLLVIAGRSPYTEKGNTASRNLRIHWTQEARDQGELVRQYVKYDFEIRMADQLPAVVSRAIQIMMSEPRGPVYIVLPREVSIQEVNEARRIPMDYYEPAPSPDKINKAKEMLEKSERPLIITWRAGRRKEWFESLRRFADNYNIPVLNYAGEVLNYPSSGPMALDRFDLRNSDLLLVVEAEVPYFPKKIDLDIPIVKIDVDPSYSYIPYYGFRCDLCIQSTPSNFFDYISIRPKSYDEIKELRAKQEEYKKQEIERLKDKKPIHPKYLSYEIGIVASEYNLVIFNEYQFNPRYARLNEFGSYFADLSVGYLGFALGAGVGYKIATNKDVLITTGDGSFIFGVPEAFYYVASKYPTMVVIYDNGGWLASAEAVDEVFPEGLAKSKKYYPGADFDRRFEIGKTVETFHGYYELVEDPWEIKPALIRGLEKMRRENKIAVIQVIVDKVREGHHHHHH", "soluble on expression in E. coli": "not soluble"}, {"sequence": "MSLKYVDEFRNGDYAKTLVRLIQKLTKKKINIMEICGSHTMAIFRYGIKDILPSNIRLISGPGCPVCVTSQGYIDTALELSLSREVIIATFGDMIRVPGTKTSLMKRKAEGADIKIVYSPMDALTLAENNPLKKVVFLSVGFETTTPITAITILEAKKRGVKNIFFLTSNKMVPPVMRTLVEDKELNITGFLLPGNVSAIIGKKPYEFLSSEYNVSGVVTGFEPLDILKGLKVLIDIINNNASVIVNEYKRVVRDEGNVTALRYIKEVFEVTDSTWRGIGNIEKSGYKINTEYEQFDAVKQFNINYKECDSSSECRCGDILKGKITPIECSLFKKACTPDHPVGSCMVSYEGVCAAYYKFLNTEGHHHHHH", "soluble on expression in E. coli": "not soluble"}, {"sequence": "MSLLFLAMAPKPKPWVQTEGPEKKKGRQAGREEDPFRSTAEALKAIPAEKRIIRVDPTCPLSSNPGTQVYEDYNCTLNQTNIENNNNKFYIIQLLQDSNRFFTCWNRWGRVGEVGQSKINHFTRLEDAKKDFEKKFREKTKNNWAERDHFVSHPGKYTLIEVQAEDEAQEAVVKVDRGPVRTVTKRVQPCSLDPATQKLITNIFSKEMFKNTMALMDLDVKKMPLGKLSKQQIARGFEALEALEEALKGPTDGGQSLEELSSHFYTVIPHNFGHSQPPPINSPELLQAKKDMLLVLADIELAQALQAVSEQEKTVEEVPHPLDRDYQLLKCQLQLLDSGAPEYKVIQTYLEQTGSNHRCPTLQHIWKVNQEGEEDRFQAHSKLGNRKLLWHGTNMAVVAAILTSGLRIMPHSGGRVGKGIYFASENSKSAGYVIGMKCGAHHVGYMFLGEVALGREHHINTDNPSLKSPPPGFDSVIARGHTEPDPTQDTELELDGQQVVVPQGQPVPCPEFSSSTFSQSEYLIYQESQCRLRYLLEVHL", "soluble on expression in E. coli": "soluble"}, {"sequence": "MSLLIETTMTFLCPLCEHPLTLNQNTYACINRHQFDVAKEGYVNLMPVQHKRSKDPGDNKEMTQARRRFLHTGHYAPMREKVATLCQTYLTDRQQTLLDIGCGEGYYTDFFAKALRQQDSEAQIFGLDISKIAIRYAAKRYPECQFAVASSHRLPFANQSLDGVIRIYAPCKDTELERCIKIGGIVITVTPAARHLYQFKQGIYDQVRLHEEQPETLSGFELVEECKLHYPMALNGSEAADLLQMTPFAWRASEDFKHRVSQSDTFECEADFMLRVYRRKEGHHHHHH", "soluble on expression in E. coli": "soluble"}, {"sequence": "MSLLKADGMAKKQTLLVGERLVWDKLTLLGFLEKNHIPQKLYYNLSSQDKELSAEIQSNVTYYTLRDANNTLIQALIPISQDLQIHIYKKGEDYFLDFIPIVFTRKERTLLLSLQTSPYQDIVKATNDPLLANQLMNAYKKSVPFKRLVKNDKIAIVYTRDYRVGQAFGQPTIKMAMVSSRLHQYYLFSHSNGRYYDSKAQEVAGFLLETPVKYTRISSPFSYGRFHPVLKVKRPHYGVDYAAKHGSLIHSASDGRVGFIGVKAGYGKVVEIHLNELRLVYAHMSAFANGLKKGSFVKKGQIIGRVGSTGLSTGPHLHFGVYKNSRPINPLGYIRTAKSKLHGKQREVFLEKAQYSKQKLEELFKTHSFEKNSFYLLEGFEGHHHHHH", "soluble on expression in E. coli": "soluble"}, {"sequence": "MSLLLRMMGWKALVPSANPLQSVICVAPHTSNYDFLLGKLYYWSIGRKAGFLMKKEWFFFPLGPIFRAMGGIPIDRSKRGSTVEQVREFFQRHAVFNVAITPEGTRDYSPQWKTGFYRIAVGAGVPIQLAVIDYSYKEMSVFELFTPTGNEEADIAYIRSRYRASQARHPRNFAESEIEGHHHHHH", "soluble on expression in E. coli": "soluble"}, {"sequence": "MSLLSVKQSSINEDHNNWDFFGHFVLRSTGFPYEWMKELKMQQTFDLIFQNAKWEQVESKFNQELAIKREQLKAYFDSEDFRQAVFISNPDMYQHIDRYMKHFQSHSRPSKVKRIEKKLFTYLQRFCGKNESASFFGPLNYGQVEPNIDEYWDGSFIETKDLQKREAFLSYWAVKALAKAVAKENELAPYVPLQIPSWIVVRKEYVVLSSGKRINLPAWMMEIMHYIQETSSCLWELQNHFNHIEAGQLKASLEKLISKGLIHREWIIPSTVVHPLHRLLEQLRELPDSPAKNKWCQALDELASEVTKLANLPIVEKRRSFAHLEETFTKLTGEPSRRGKASLYADRFIYYEDAQGHIQEFRFGKPFIEDLQTKLAGSLNMSAAYGEEIWAYYQELGRNVYEDMQVEARNDEKRQLANSGIPFSSFINKLRQTYPDVPQLPKSSFSNKIEAIIREKGTEQRVVKLTSDQLNVFPSNRSFYSLPDLFLQAENIEALRNGDVQIILAKLHHHLLMHNWMTYFYQEKERLERDLVQLVQKLDHEDGTVLSGLEIMRRNKAYYDYPTTVIEYAEKPDSSKESIKLTDLIVVRNDDGHLELQEKNTSRPIELYVPLADQVHYLPFAMFSKPMLLHVPISSGKHTPRIVIDDVVYQRERWFFYTKQLVDLFHQLQGPLLLKKVEEWRQAEGIPEVVYIKGSDVRKPYWVDFKNYFSLELMQQILLENNEITIEEMLPDPHHLWLKSRKGSHSCELRMSVYKLGIKEVSEHAEGHHHHHH", "soluble on expression in E. coli": "soluble"}, {"sequence": "MSLMFERSPDDPLPLVYACSGCSNVAQLANDLALRLDRARLAEMSCIAGVGGDVPLLVRRARSGRPILALDGCPLHCVKGCLARHEVVPTLHLTLSEHGLKKRYGEDCEAQDAERLFVELERLLTPGGKRRCEEGHHHHHH", "soluble on expression in E. coli": "soluble"}, {"sequence": "MSLMLEPNPTQIKEERIYAEMGLTDEEFAMVEKILGRLPNYTETGLFSVMWSEHCSYKNSKPVLRKFPTTGERVLQGPGEGAGIVDIGDNQAVVFKMESHNHPSAIEPYQGAATGVGGIIRDVFSMGARPVALLNSLRFGELQSPRVKYLFEEVVAGIAGYGNCIGIPTVGGEVQFDPCYEGNPLVNAMCVGLINHEDIKKGQAHGAGNTVMYVGASTGRDGIHGATFASEELSESSEAKRPAVQVGDPFMEKLLIEACLELIQSDALVGIQDMGAAGLTSSSAEMASKAGMGIEMYLDDVPQRETGMTPYEMMLSESQERMLIVVKKGREQEIVDLFEKYGLAAVTMGKVTEDKMLRLFHKGEMVAEVPADALAEEAPIYHKPSKEAAYFAEFQQMKMETPKVENYKETLFALLQQPTIASKEWVYDQYDYQVRTSTVVTPGSDAAVVRVRGTEKGLAMTTDCNSRYIYLDPEVGGKIAVAEAARNIVCSGGEPLAITDCLNFGNPEKPEIFWQIEKSVDGMSEACRTLQTPVIGGNVSMYNERSGEAVYPTPTVGMVGLVHDLKHVTTQEFKQAGDLVYVIGETKAEFGGSELQKMLHGKIFGQSPSIDLDVELKRQKQVLAAIQAGLVQSAHDVAEGGLAVAISESAIGANGLGATVKLDGEATAALFAESQSRFVITVKRENKEAFEKAVEAIQVGEVTNTNEVTIHNEENEVLLTANVDEMRKAWKGAIPCLLK", "soluble on expression in E. coli": "not soluble"}, {"sequence": "MSLMRIVFDIGGSVLVPEKPDVDFITKLGYELTKISEDHEIAIVVGGGKVAREYIEVASKFNTNETFKDYLGIQITRANAMLLIAALKERAYPQVVSDFWEAWKAIQLKKIPVMGGTHPGHTTDAVSALLAEFLSADLLVVITNVDGVYTEDPKKNPNAKKIPKMKAKDLVDIVSREAGKAGVSTVIDPLAAKIIMRSGIKTYVIGKEDALKLFDVIKGNHNGTIIEPEGHHHHHH", "soluble on expression in E. coli": "soluble"}, {"sequence": "MSLMTSVVPSFCHQDRRSNQRMKGLSPLAMAQVVTLGVLEPRAQGAVRWRRCWPERSTVGAIEAQRHWRPYLELSWAEKQQRDERQSQRASRVREEMFAKGQPLAPYNTTQFLMNDRDLEEPNLDVLHGPSHSGSGGENEAGDSDGQGRAHGEFQQRDFSEAYERYHTESLQGRSKQELVRDYLDLERRLSQAEQETRRLRQLQGCSSRQPCQQVEELAAEVERLRTENQRLRQENEMWNREGGYCDQEKPASEGTPWPKVEAPFQTHTGQLGHREAGDR", "soluble on expression in E. coli": "soluble"}, {"sequence": "MSLNADTLEDIKKAGVIKAATEMQFPPFDFLEGDKYVGVDRDLMDEVAKELGVKVEYIDLPWTSVLPGLEAGKFDLVIAPVTITKERLARYAFTLPISEGTAALMKRADDDSITKPEDIAGKTIGGGKGTSQLGQIKEYAAALPGKVEFKEYVDSNQSYADLAAGRVDASVNSYPNLAYAAAQRPETFAVVLPPFGKTTYFSWVSRLGEKDASLVEAVNAALLKLGEDGRMSAIHEKWFGKGVDLPKEGHHHHHH", "soluble on expression in E. coli": "soluble"}, {"sequence": "MSLNASEAVYKAILDSGVDFVTSVPCANLKTVLNYLNDNKDIQHIPVTREEEGIGVCAGAYLGGRKTALLMQNSGLGNSINAIGSLVKVYKIPILIIISHRGDLKEKISAQIPMGQWTKKLLETVEIPYFSPKTPDEAYKLIKDASELSINMEYPVAILLDALYWEHDKEGHHHHHH", "soluble on expression in E. coli": "soluble"}, {"sequence": "MSLNDSFNPNENNPAEPSMELVVNGSGINVRSDAGIEHRVVRKASNGDRYKVLAVKNGWYKVGNGEWIFYDPSWIKINYNVPKEEVQKPKEEVQKPKDDITGGWFEGHIRKLNSLGIMQGEGNGVFAPYRNVTRAEFAKLISNALKLPEGNKSFVDINEAHPSLHDGIKRCASAGIINGRGEGIFDPNSPITREEVSIMIDKALRYKGITGELVALPFTDKHLITYKESVQRLYSLKVVNGIGNNEFDPRGTATRGQAAAFIVKMLDSMQKEGHHHHHH", "soluble on expression in E. coli": "soluble"}, {"sequence": "MSLNEWALETDAEFLVYNALRETGRLLISPDAITKQKARHVMRQVIARYPLGSKHDKLWLAAVEMLHYYAPEVLQQLGIDLDAAKRDLAARILPNRFECQGPAIIRSQDLSDAQAAQACDVLDKKEQDFHQVANTGLAPVADDYNTRVEVVVFANNSSYVNYSSFLFGNTTDNGGQYLEGNPADQNNQARFVAYRYANDADLSILNLEHEYTHYLDARFNQYGSFSDNLAHGHIVWWLEGFAEYMHYKQGYQAAVKLISQGKLSLSDVFATTYSNDTNRIYRWGYLAVRFMLEKHPQDVESLLALSRTGQFDQWAQSVKLLGERYNTEFSAWLDTLQRDNEGHHHHHH", "soluble on expression in E. coli": "not soluble"}, {"sequence": "MSLNGITKYVEKVKGLLFSSVQSQKRIEFSNNDEKVMLSNVPLIQQLPELDRGCEVTSLAMMLQYAGVSVDKMKLANEIKKVNFMEDGVRGNPNEGFVGNIYTFSESGYGVYHGPLFQLAKKYLPNKAVDLTGKSIEEIYKSVKAGHPVVMITNATYAPLDEDEFTTWETNSGDVSITYNEHCVVLVGYDKESVYIRDPLDDSLDVKVPREKFEQAWVQMGSQAISYVNKSKEGHHHHHH", "soluble on expression in E. coli": "soluble"}, {"sequence": "MSLNHPSSTPVPPLDATPARALGEFIRAHRERLSPQAVGLPPGPRRRTPGLRREEVAQLCGVSPTWYTWIEQGRPVSASADALARIAVALQLSKAERAYLFELAAQRDPAEPDVAGGDLPPTLAATVAAIATPAYVMDRQWNALAWNTPAAALFSGWLDGEHDRNLLRFTFMSPAARTLIVDWETRARRMAAEFRADSIRHLTDAPTRALIDALTAGSDAFAQYWASQDVFEREGGLREFDHPADGRMVYQQITLKPAHREDLKLVVLVRDEGHHHHHH", "soluble on expression in E. coli": "soluble"}]}]}
